Data as given in patent publication US20120088237.
Numbering of substitutions follows the chain as printed.

Key:
[1] = test system: T1, BstNI (Bacillus stearothermophilus); assay: cleavage_in_vitro; conditions: 5mC at inner (second) C of CCWGG (dcm); NEB1 and NEB4 0.1; NEB2 0.5; NEB3 2; 60 C 1 h, crude lysate
T1 sequence: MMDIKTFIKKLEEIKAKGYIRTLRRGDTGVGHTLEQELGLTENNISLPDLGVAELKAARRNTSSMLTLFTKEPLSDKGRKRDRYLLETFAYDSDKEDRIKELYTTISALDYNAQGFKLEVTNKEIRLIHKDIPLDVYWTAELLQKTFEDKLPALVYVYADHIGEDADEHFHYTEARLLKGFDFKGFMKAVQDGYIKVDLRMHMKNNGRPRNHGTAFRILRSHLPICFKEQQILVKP

[2] = test system: T2, BstNI R200C R200C (Bacillus stearothermophilus); assay: cleavage_in_vitro; conditions: 5mC at inner (second) C of CCWGG (dcm); NEB1, NEB2 and NEB4 each 100; NEB3 10; 60 C 1 h, crude lysate
T2 sequence: T1 sequence with R200C

## CCWGG (double strand) [dcm+ plasmid pBC4 (C5mCWGG)]
[1]
  relative cleavage in vitro (fold (dcm+/dcm- cleavage)): 0.1
[2]
  relative cleavage in vitro (fold (dcm+/dcm- cleavage)): 100
